Experimental data: the nanobody polyreactivity screen of Harvey et al. (2022)

Assay: yeast display, Sf9 membrane polyspecificity reagent, FACS + sequencing; frameworks hold sequencing errors
In short: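 Galactose-induced (36–48 hours) yeast carrying a synthetic nanobody display library were exposed to 10% biotinylated, detergent-solubilized Sf9 membrane reagent at 4 °C for 1 hour. FACS followed streptavidin microbead enrichment, using low and high (top ~1%) gates for expression (anti-HA) and reagent binding (streptavidin). Colony PCR, MiSeq 2 × 250 sequencing and CDR-length filtering followed. Labels for polyreactivity reflect the gate of origin.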

Row | Sequence | polyreactivity (PSR sort gate)
1 | QGQLVESGGGLVQAGGSLRLSCAASGRIFPGNVMGWYRPAPGKERELVAAISSSGGSTYYADSVKGRFTISRDNAKNTVYLQMNSLKPEDTAVYYCAADSSDWPYDYWGQGTQVTVSS | low polyreactivity
2 | QVHLEESGGGLVQAGGSLRLSCAASGFTFHNNVMGWYRQAPGKERELVATISKSGGSTYYADSVKGRFTISRDNAKNPVYLQMKSLKPEDTAVYYSARRYRDYRRYAYWGQGTQVTVSS | high polyreactivity
3 | QVQLVESGGGLVQAGGSLRLSCAASGSIFEEYALGSSRQAPGKERELVAAISRSGGSTYYADSVKGRFTISRDNAKNSVYLQMNSLKPEDTAVYYCAAEWVYGYRFGYWGQGTQVTVSS | low polyreactivity
4 | QVQLVESGGGLVQAGGSLRLSCAASGSIFDPYAMGWYRQAPGKERELVAAINGGSGSTFYADSVKGRFTISRDNAKNTVYLQMNSLKPEDTAVYYCAAKIWRYSPSYYPEPRGDYWGQGTQVTVSS | low polyreactivity
5 | QVHLVESGGCLVQAGGSLRLSCAASGSTFPSYAMGWYRQAPGKERELVAAINSGGGTNYADSVKGRFTITRDNAKNTVYLQLNILKPEDSAVYYGAADVWKLYDYWGQGTQVTVSS | low polyreactivity
6 | QVQLEESGGGLVQAGGSLRLSCAASGRIFGGYAMGWYRQAPGKERELVAAITSSGSTNYADSVKGRFTISRDNAKNTVYLQMNSLKPEDTAVYYCATDFKTVYYWWGMDYWGQGTQVTVSS | low polyreactivity
7 | QVQLVESGGGLVQAGGSLRISCAASGFIFRSYAMGWYRQAPGKERELVAAISRSGGSTYYADSVKGRFTISRDNAKNTVYLQMNSLKPEDTAVYYCATDGGRSTARGYGHWGQGTQVTVSS | high polyreactivity
8 | QVQLVESGGGLVQAGGSLRLSCAASGSTFYTNAMGWYRQAPGKEREFVAAISGRGSNTYYADSVKGRFTISRDNAKNTVYLQMNSLKPEDTAVYYCAADFRSEHAEDYWGQGTQVTVSS | high polyreactivity
9 | QVQLVESGGGLVQAGGSLRLICAASGRTLGGNAMGWYRQAPGKERELVAAITNSASTYADSVKGRFTISRDNAKNTVYLQMNSLKPEDTAVYYCNAPDPSDQHGDYWGQGTQVTVSS | low polyreactivity
10 | QDQLVESGGGLVQAGGSLRLSCAASGLTFLWYNMGWYRPAPGKERELVAGITWSGGSTYYADSVKGRFTISRDNAKNTVYLQMNSLKPEDTAVYYCAASFLWKVTGEYYYWGQGTQVTVSS | high polyreactivity
11 | QVQLVESGGGLVQAGGSLRLSCAASGRTMYRNAMGWYRQAPGKERELVDDISRSGGSTFYADSVKGRFTISRDNAKNTVYLQMNSLKPEDTAVYYCNADYQEYVSGYDYWGQGTQVTVSS | high polyreactivity
12 | QVQLVESGGGLVQAGGSLRLSCAASGVIFTFYAMGWYRQAPGKEREFVASIDWGDGSTYYADSVKGRFTISRDNAKNTVYLQMNSLKPEDTAVYYCAHDSDGYVCDTEYDYWGQGTQVTVSS | low polyreactivity
13 | QVQLVESGGGLVQAGGSLRLSCAASGLTFADNTMGWYRQAPGKERELVAAIDWSGGGTDYADSVKGRFTISRDNAKNTDYLQMNSLKPEDTAVYYCNAERTSWEDDYWGQGTQVTVSS | low polyreactivity
14 | QVQLVESGGGLVQAGCSLRLRCAASGFTFYSYAMGWYRQAPGKERELVANITIGGSTYADSVKGRFTISRDNAKNNVYLQMNSLNPEDTAVYYCARGYRVVGDPLYGEYDYWGQGSQVTVSS | low polyreactivity
15 | QVQLVESGGGLVQAGGSLRLSCAASGIIFGRYAMGWYRQSPGKERELVAAISSRGGSTYYADSVKGRFTISRDNAKNTVYLQMNSLKPEDTAVYYCAATWGYLRGSTNYYYWGQGTQVTVSS | high polyreactivity
16 | QFQLVESGGGLVQAGGSLRLSCAASGCTLQRNNRGWYRQAPGKDSEFVARISRRACSTYYADSVKGRITISRDNAKNTVYLQMNSLKPEDTAVYYCSTEDRGLTTRYPYDYWGQGTQVTVSS | high polyreactivity
17 | QVQLVESGGGLVQAGGSLRLSCAASGRIFRGYVMGWYRQAPGKERELVAVITSGGRTYYADSVKGRFTISRDNAKNTVYLQMNSHKPEDTAVYYCATYPRYKPYYYWGQGTQVTVSS | low polyreactivity
18 | QVQLVESGGGLVQAGGSLRLSCAASGSIFRRNAMGWYRQAPGKERELVAAISSSGNTYYADSVKGRFTISRDNAKNTVYLQMNSLKPEDTAVYYCAADGRNYYGSYDYWGQGTQVTVSS | low polyreactivity
19 | QVQLVESGGGLVQAGGSLRLSSAASGRIFGKYAMGWYRQAPGKERELVAAIRITGGSTYYADSVKGRFTISRDNAKNTVYLQMNSLKPEDTAVYYSAAVYKYADVIYDYWGQGTQVTVSS | high polyreactivity
20 | QVQLVESGGGLVQAGGSLRLSCAASGGLFYYNAMGWYRQAPGKERELVAAISGSGGTTYYADSVKGRFTISRDNAKNTVYLQMNSLKPEDTAVYYCAKRPYTVIAYSRYGYWGQGTQVTVSS | high polyreactivity
21 | QVQLVESGGGLVQAGGSLLLSCAASGSIFIYYTIGWYRQARGKARELVAAITRSGGDTYYADSVKGRFTISRDNAKNTVYLQMNSLKPEDTAVYYCAADSWLRYGTYEYWGQGTQVTVSS | high polyreactivity
22 | QVQLVETGGGLVQAGGSLRLSCAASGYIFGYVMGWYRQAPGKERELVAAITYSSGNTYYADSVKGRFTISRDNAKNTVYLQMNSLKPEDTAVYYCAKQAYYKGRLAYGYWGQGTQVTVSS | high polyreactivity

Row | Sequence | polyreactivity (PSR sort gate)
23 | QVQLVESGGGLVQAGGSLRLSCAASGRIFLHYAMGWYRQAPGKERELVAAISRSGGSTYYADSVKGRFTISRDNAKNTVYLQMNSLKPEDTAVYYCAAAYPFKTTEGYYYWGQGTQVTVSS | high polyreactivity
24 | QVQLVESGGGLVQAGGSLRLSCAASGYTFWDYTMGWYRQAPGKERELVAAISSSGSSTYYADSVKGRFTISRDNAKNTVYLQMNSLKPEDTAVYYCAAYSRRQWKYDYWGQGTQVTVSS | high polyreactivity
25 | QVQLVESGGGLVQAGGSLRLSCAASGSTFPGNAMGWYRQAPGKESELVASISGGGDSTYYADSVKGRFTISRDNAKNTVYLQMISLKPEDTAVYYCAADYRQEPGYTGYYYWGQGTQVTVSS | low polyreactivity
26 | QVQLVESGGGLVQAGGSLRLSCAASGSTFPINAMGWYRQAPGTERELVAAIDTNTASTYYADSVKGRFTISRDNAKNTVYLQMNSLKPEDTAVYYCAAEEWFYDGNVIYDWGQGTQVTVSS | high polyreactivity
27 | QVQLVESGGGLVQAGGSLRLSCAASGRTFYYYAMGWYRQAPGKEREFVASISYSGARTYYADSVKGRFTISRDNAKNTVYLQMNSLKPEETAVYYCAAGYPLGGDYWGQGTQVTVSS | high polyreactivity
28 | QVQLVESGGGLDQAGGSLRLSCAASGFTFRWYAMGWYRQAPGKERELVAAISRGGNTNYADSVKGRFTISRDNAKNTVYLQMNSLKPEDSAVYYCARNTGPYLGYYHRYYWGHGTQVTVSS | high polyreactivity
29 | QVQLQESGGGLVQAGGILRLSCAACGNIFPSAVMGWYRQALGKEREFVATINSGSNTYYADSVNGRFSISRDNAKHTVYLHRNSLKLQDTAVYYCAAYFKLPAWHTSWGQGTQVSVSS | low polyreactivity
30 | QVPLVESGVGLVQAGGSLRISCAASGFTFSRYAMGWYRQAPGKERELVAAISRTGGRTYYADSVKGRFTITRDNAKNTVYLQMNSLKPEDTADYYCARVPVHSHLRQTYAMEYWGQGTQVTVSS | high polyreactivity
31 | QVQLVESGGGLVQAGGSLRLSCAASGRTIAINAMGWYRQAPGKEREFVAAITSRSSRTYYADSVKGRFTISRDNAKNTVYLQMNSLKPEDTAVYYCARGSELGYYAWVYYWGQGTQVTVSS | high polyreactivity
32 | QVQLVESGGGLVQAGGSLRLSCAASGSNFSSNAMGWYRQAPGKERELVAAISRSGVTTYYADSVKGRFTISRDNAKNTVYLQMNSLKPEDTAVYYCAGQPYSRLYGRYRGFQYKYVYWGHGTQVTVSS | low polyreactivity
33 | QVQLVESGAGLVQAGVSLRLSCAASGSILTDSAMGWYIQAPGKERELVATISNGGSTNYADSVKGRFTISRDNAKNTVYLKMNSLKPEDTAVYYCNAEPGVPSWELDYWGQGTQVTVSS | low polyreactivity
34 | QVQLVESGGGLVQAGGSLRLSCAASGRTIQYYAMGWYRQAPGKERELVAAITRSGGRTYYADSVKGRFTISRDNAKNTVYLQMNSLKPEDTAVYYCARVSSSVHVDYDYWGQGTQVTVSS | high polyreactivity
35 | QVQLVESGGGLVQAGGSLRISCAASGSTFDENAMGWYRQAPGKERELVAVISDSGGSTYYADSVKGRFTISRDNAKNTVYLQMNSLKPEDTAVYYCAKDVPPVYPTSSYDYWGQGTQVTVSS | low polyreactivity
36 | QVQLVESGGGLVQAGGSHRLSCAASGSILSYYAMGWYRQAPGQEREFVAAIRTRGGSTYYADSVKGRFTISRDNAKNTVYLQMYSLKPEDTAVYYFAARTRPDRVRQGRYYYWGQGTQVTVSS | high polyreactivity
37 | QVQLVESGGALVQAGGSLRLSCAASGRTLGGYAMGWYRQAPGKERELVAAITRRGGTTYYADSVKGRFTISRDNAKNTVYLQMNSLKPEDTAVYYCAKYTVQYAISHYDYWGQGTQVTVSS | high polyreactivity
38 | QVQLVESGGGLVQAGGSLRLSCAASGRIFWYYAIGWYRQAPGKEREIVAAISRSGGTTYYADSVKGRFTISRDNAKNTVYLQMNSLKPEDTAVYYCAAVYHAYTGYEAWYEYDYWGQGTQVTVSS | high polyreactivity
39 | QVQLVESGAGLVQAGGSLRLSCAASGLTFDYYAMGWYRQAPGKEREFVAAITRRGGGTYYADSVKGRFTISRDNAKNTVYLQMNSLKPEDTAVYYCAAYGCGNRWYSRFDYWGQGTQVTVSS | high polyreactivity
40 | QVQLVESGGGLVQAGGSLRLSCAASGITFTSYAMGWYRQAPGKERELVAAISWSGDRTYYADSVKGRFTISRDNAKNTVYLQMNSLKPEDTAVYYCAAEWVSPWTGPGFDYWGQGTQVTVSS | high polyreactivity
41 | QVQLVESGGGLVQAGGSLRLSCAASGSIFNRYTMGWYRQAPGKEREFVAAIRNSGSRTYYADSVKRRFTISRDNAKNTVYLQMNSLKPEDTAVYYCAADGPLNSSESYYWGQGTQVTVSS | low polyreactivity
42 | QVQLVESGGGLVQAGGSLRLSCAASGGTFQINAMGWYRQAPGKERELVAAISRSGGSTSYADSVKGRFTISRDNAKNTVYLQMNSLKPEDTAVYYCNKRVRATAWYDYWGQGTQVTVSS | high polyreactivity
43 | QVQLVESGGGLVQAGGSLRLSCAASGSTFVPYTMGWYRQAPGKERELVAAISSGDSTYYADSVKGRFTISRDNAKNTVYLQMNSLKPEDTAVYYCAADYQWFWVWYGYWGQGTQVTVSS | high polyreactivity
